Measurements as given in publication PMC3615140 (Molecular cell, 2013).

How the values were obtained:
[1] = biological target: T1, FLAG-Set1 (full length) (S. cerevisiae, UniProt P38827 1-1080); test: SEC
T1 sequence (looked up): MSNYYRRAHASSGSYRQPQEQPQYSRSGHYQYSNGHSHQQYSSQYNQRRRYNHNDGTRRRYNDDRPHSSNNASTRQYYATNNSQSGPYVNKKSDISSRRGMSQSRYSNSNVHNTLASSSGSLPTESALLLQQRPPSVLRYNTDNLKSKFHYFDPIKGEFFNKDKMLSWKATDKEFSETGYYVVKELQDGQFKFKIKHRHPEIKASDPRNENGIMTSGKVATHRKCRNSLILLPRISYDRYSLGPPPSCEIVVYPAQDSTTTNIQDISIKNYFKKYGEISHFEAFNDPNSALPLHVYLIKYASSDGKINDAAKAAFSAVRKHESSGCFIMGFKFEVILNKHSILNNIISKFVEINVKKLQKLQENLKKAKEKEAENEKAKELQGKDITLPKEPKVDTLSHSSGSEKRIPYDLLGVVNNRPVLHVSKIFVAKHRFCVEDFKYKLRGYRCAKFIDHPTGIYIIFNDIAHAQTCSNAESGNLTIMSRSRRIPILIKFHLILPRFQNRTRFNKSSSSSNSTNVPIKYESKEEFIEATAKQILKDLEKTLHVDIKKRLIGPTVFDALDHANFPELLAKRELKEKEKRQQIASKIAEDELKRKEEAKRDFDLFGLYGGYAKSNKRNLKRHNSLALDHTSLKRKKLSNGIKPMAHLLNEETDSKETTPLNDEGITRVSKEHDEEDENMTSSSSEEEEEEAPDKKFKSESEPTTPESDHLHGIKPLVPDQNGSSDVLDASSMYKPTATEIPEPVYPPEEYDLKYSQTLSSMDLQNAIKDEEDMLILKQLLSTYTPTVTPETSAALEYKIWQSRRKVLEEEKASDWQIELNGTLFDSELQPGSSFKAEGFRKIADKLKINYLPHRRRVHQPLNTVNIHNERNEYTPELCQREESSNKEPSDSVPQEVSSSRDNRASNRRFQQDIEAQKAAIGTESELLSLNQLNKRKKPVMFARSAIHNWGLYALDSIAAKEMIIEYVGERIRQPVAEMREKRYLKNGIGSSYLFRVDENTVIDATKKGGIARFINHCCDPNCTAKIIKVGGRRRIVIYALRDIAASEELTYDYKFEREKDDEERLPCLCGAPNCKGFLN

[2] = biological target: T2, GST-Set1 fragment, residues 356–568 (S. cerevisiae, UniProt P38827 356-568); test: pull-down
T2 sequence (looked up): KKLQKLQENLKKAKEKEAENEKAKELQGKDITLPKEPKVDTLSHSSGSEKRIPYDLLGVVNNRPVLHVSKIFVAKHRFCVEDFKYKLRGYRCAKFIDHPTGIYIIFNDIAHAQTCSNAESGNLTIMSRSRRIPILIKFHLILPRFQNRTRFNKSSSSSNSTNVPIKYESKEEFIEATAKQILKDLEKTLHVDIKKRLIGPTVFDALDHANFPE

[3] = biological target: T1, FLAG-Set1 (full length); test: affinity co-purification by the FLAG tag
[4] = biological target: T1, FLAG-Set1 (full length); test: affinity co-purification by the FLAG tag; remark: listed apart in the source
[5] = biological target: T3, FLAG-Swd2 (purified) (S. cerevisiae, UniProt P36104 1-329); test: pull-down
T3 sequence (looked up): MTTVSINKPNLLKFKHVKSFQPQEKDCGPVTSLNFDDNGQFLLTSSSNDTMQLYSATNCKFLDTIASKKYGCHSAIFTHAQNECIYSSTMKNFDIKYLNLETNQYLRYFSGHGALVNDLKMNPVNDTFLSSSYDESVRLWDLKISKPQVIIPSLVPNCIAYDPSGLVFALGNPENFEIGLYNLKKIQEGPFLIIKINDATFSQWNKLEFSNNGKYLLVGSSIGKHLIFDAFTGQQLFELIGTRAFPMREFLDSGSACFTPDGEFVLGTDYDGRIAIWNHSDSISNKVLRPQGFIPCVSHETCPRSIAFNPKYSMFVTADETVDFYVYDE

[6] = biological target: T4, FLAG-Spp1 (purified) (S. cerevisiae, UniProt Q03012 1-353); test: pull-down
T4 sequence (looked up): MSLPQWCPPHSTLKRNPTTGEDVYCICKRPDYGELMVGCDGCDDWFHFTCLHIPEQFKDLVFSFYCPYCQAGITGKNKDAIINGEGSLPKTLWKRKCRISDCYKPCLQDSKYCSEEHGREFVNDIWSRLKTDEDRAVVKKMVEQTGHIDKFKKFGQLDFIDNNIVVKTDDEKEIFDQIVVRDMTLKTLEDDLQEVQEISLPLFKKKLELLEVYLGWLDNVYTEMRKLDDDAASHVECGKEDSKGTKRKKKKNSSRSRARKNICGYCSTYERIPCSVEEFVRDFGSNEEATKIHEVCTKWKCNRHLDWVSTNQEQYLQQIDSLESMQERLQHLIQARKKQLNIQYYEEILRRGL

B1: Shg1 (natural protein, S. cerevisiae, UniProt P38337 1-142, looked up)
chain: MAYNQEDSKRLSDKYKKEGHFDKLKREILSNPWNNTEENSESFEQALRKRVASTVKEMVNEDEELIFKNRGLTSALIESQLVKDNYLKLGSKMEGDNGDGEKKFDLDVYVRSKLQDPKLLEMIKGQLQETLNSYEEEANGST
Question: Does B1 bind [1]?
Answer: binds

B2: FLAG-Shg1 (purified) (natural protein, S. cerevisiae, UniProt P38337 1-142, looked up)
chain: B1 chain
Question: Does B2 bind [2]?
Answer: binds

B3: Swd2 (natural protein, S. cerevisiae, UniProt P36104 1-329, looked up)
chain: T3 sequence (looked up)
Question: Does B3 bind [1]?
Answer: binds

B4: Swd1 (natural protein, S. cerevisiae, UniProt P39706 1-426, looked up)
chain: MNILLQDPFAVLKEHPEKLTHTIENPLRTECLQFSPCGDYLALGCANGALVIYDMDTFRPICVPGNMLGAHVRPITSIAWSPDGRLLLTSSRDWSIKLWDLSKPSKPLKEIRFDSPIWGCQWLDAKRRLCVATIFEESDAYVIDFSNDPVASLLSKSDEKQLSSTPDHGYVLVCTVHTKHPNIIIVGTSKGWLDFYKFHSLYQTECIHSLKITSSNIKHLIVSQNGERLAINCSDRTIRQYEISIDDENSAVELTLEHKYQDVINKLQWNCILFSNNTAEYLVASTHGSSAHELYIWETTSGTLVRVLEGAEEELIDINWDFYSMSIVSNGFESGNVYVWSVVIPPKWSALAPDFEEVEENVDYLEKEDEFDEVDEAEQQQGLEQEEEIAIDLRTREQYDVRGNNLLVERFTIPTDYTRIIKMQSS
Question: Does B4 bind [3]?
Answer: binds

B5: Swd3 (natural protein, S. cerevisiae, UniProt P38123 1-315, looked up)
chain: MFQFVTPVGTQNGLKATCAKISPDGQFLAITQGLNILIYDINRRTVSQTLVTSHARPFSELCWSPDGQCIATASDDFSVEIIHLSYGLLHTFIGHTAPVISLTFNRKGNLLFTSSMDESIKIWDTLNGSLMKTISAHSEAVVSVDVPMNDSSILSSGSYDGLIRIFDAETGHCLKTLTYDKDWKRENGVVPISQVKFSENARYLLVKSLDGVVKIWDCIGGCVVRTFQVQPLEKGVLHHSCGMDFLNPEDGSTPLVISGYENGDIYCWNSDTKSLLQLLDGSLYHHSSPVMSIHCFGNIMCSLALNGDCCLWRWV
Question: Does B5 bind [4]?
Answer: binds

B6: GST-Set1 fragment, residues 1–229 (domain or fragment, S. cerevisiae, UniProt P38827 1-229, looked up)
chain: MSNYYRRAHASSGSYRQPQEQPQYSRSGHYQYSNGHSHQQYSSQYNQRRRYNHNDGTRRRYNDDRPHSSNNASTRQYYATNNSQSGPYVNKKSDISSRRGMSQSRYSNSNVHNTLASSSGSLPTESALLLQQRPPSVLRYNTDNLKSKFHYFDPIKGEFFNKDKMLSWKATDKEFSETGYYVVKELQDGQFKFKIKHRHPEIKASDPRNENGIMTSGKVATHRKCRNSL
Question: Does B6 bind [5]?
Answer: binds

B7: GST-n-SET (Set1 residues 762–937) (domain or fragment, S. cerevisiae, UniProt P38827 762-937, looked up)
chain: MDLQNAIKDEEDMLILKQLLSTYTPTVTPETSAALEYKIWQSRRKVLEEEKASDWQIELNGTLFDSELQPGSSFKAEGFRKIADKLKINYLPHRRRVHQPLNTVNIHNERNEYTPELCQREESSNKEPSDSVPQEVSSSRDNRASNRRFQQDIEAQKAAIGTESELLSLNQLNKRK
Question: Does B7 bind [6]?
Answer: binds

B8: Spp1 (natural protein, S. cerevisiae, UniProt Q03012 1-353, looked up)
chain: T4 sequence (looked up)
Question: Does B8 bind [1]?
Answer: binds
